B1: target 1 insC 3' of 15,insU 3' of 13 (mixed)
RNA 1: CACCCGUGCAAAAAUGCAGGGGUCUAAAACUGAGCGGAUAACCUCUCUAUGG
RNA 2: GGGAAUGGAUCCACAUCUACGAAUUCGUACCAUAGAGCAGUGUUAUCCGCUCACCGAGAUCGGAAGAGCACACGU
B2: target 1 insC 3' of 11,insG 3' of 2 (mixed)
RNA 1: CACCCGUGCAAAAAUGCAGGGGUCUAAAACUGAGCGGAUAACCUCUCUAUGG
RNA 2: GGGAAUGGAUCCACAUCUACGAAUUCGUACCAUAGAGAGGUCUAUCCGCUCGACCGAGAUCGGAAGAGCACACGU
B3: target 1 U3C,A9C (mixed)
RNA 1: CACCCGUGCAAAAAUGCAGGGGUCUAAAACUGAGCGGAUAACCUCUCUAUGG
RNA 2: GGGAAUGGAUCCACAUCUACGAAUUCGUACCAUAGAGAGGUUCUCCGCCCACCGAGAUCGGAAGAGCACACGU
B4: target 1 U3G,A18U (mixed)
RNA 1: CACCCGUGCAAAAAUGCAGGGGUCUAAAACUGAGCGGAUAACCUCUCUAUGG
RNA 2: GGGAAUGGAUCCACAUCUACGAAUUCGUACCAUUGAGAGGUUAUCCGCGCACCGAGAUCGGAAGAGCACACGU
B5: target 1 insU 3' of 12,insU 3' of 9 (mixed)
RNA 1: CACCCGUGCAAAAAUGCAGGGGUCUAAAACUGAGCGGAUAACCUCUCUAUGG
RNA 2: GGGAAUGGAUCCACAUCUACGAAUUCGUACCAUAGAGAGGUUUAUUCCGCUCACCGAGAUCGGAAGAGCACACGU
B6: target 1 U3G,A14C (mixed)
RNA 1: CACCCGUGCAAAAAUGCAGGGGUCUAAAACUGAGCGGAUAACCUCUCUAUGG
RNA 2: GGGAAUGGAUCCACAUCUACGAAUUCGUACCAUAGAGCGGUUAUCCGCGCACCGAGAUCGGAAGAGCACACGU
B7: target 1 insC 3' of 10,insG 3' of 10 (mixed)
RNA 1: CACCCGUGCAAAAAUGCAGGGGUCUAAAACUGAGCGGAUAACCUCUCUAUGG
RNA 2: GGGAAUGGAUCCACAUCUACGAAUUCGUACCAUAGAGAGGUUCGAUCCGCUCACCGAGAUCGGAAGAGCACACGU
B8: target 1 insA 3' of 22,insU 3' of 18 (mixed)
RNA 1: CACCCGUGCAAAAAUGCAGGGGUCUAAAACUGAGCGGAUAACCUCUCUAUGG
RNA 2: GGGAAUGGAUCCACAUCUACGAAUUCGUACACAUAUGAGAGGUUAUCCGCUCACCGAGAUCGGAAGAGCACACGU
B9: target 1 del5,del7 (mixed)
RNA 1: CACCCGUGCAAAAAUGCAGGGGUCUAAAACUGAGCGGAUAACCUCUCUAUGG
RNA 2: GGGAAUGGAUCCACAUCUACGAAUUCGUACCAUAGAGAGGUUAUCCUCACCGAGAUCGGAAGAGCACACGU
B10: target 1 C6A,U8C (mixed)
RNA 1: CACCCGUGCAAAAAUGCAGGGGUCUAAAACUGAGCGGAUAACCUCUCUAUGG
RNA 2: GGGAAUGGAUCCACAUCUACGAAUUCGUACCAUAGAGAGGUUACCAGCUCACCGAGAUCGGAAGAGCACACGU
B11: target 1 insU 3' of 21,insA 3' of 7 (mixed)
RNA 1: CACCCGUGCAAAAAUGCAGGGGUCUAAAACUGAGCGGAUAACCUCUCUAUGG
RNA 2: GGGAAUGGAUCCACAUCUACGAAUUCGUACCUAUAGAGAGGUUAUCACGCUCACCGAGAUCGGAAGAGCACACGU
B12: target 1 insG 3' of 22,insC 3' of 5 (mixed)
RNA 1: CACCCGUGCAAAAAUGCAGGGGUCUAAAACUGAGCGGAUAACCUCUCUAUGG
RNA 2: GGGAAUGGAUCCACAUCUACGAAUUCGUACGCAUAGAGAGGUUAUCCGCCUCACCGAGAUCGGAAGAGCACACGU
B13: target 1 insC 3' of 14,insG 3' of 11 (mixed)
RNA 1: CACCCGUGCAAAAAUGCAGGGGUCUAAAACUGAGCGGAUAACCUCUCUAUGG
RNA 2: GGGAAUGGAUCCACAUCUACGAAUUCGUACCAUAGAGACGGUGUAUCCGCUCACCGAGAUCGGAAGAGCACACGU
B14: target 1 insA 3' of 7,insA 3' of 7 (mixed)
RNA 1: CACCCGUGCAAAAAUGCAGGGGUCUAAAACUGAGCGGAUAACCUCUCUAUGG
RNA 2: GGGAAUGGAUCCACAUCUACGAAUUCGUACCAUAGAGAGGUUAUCAACGCUCACCGAGAUCGGAAGAGCACACGU
B15: target 1 insC 3' of 13,insG 3' of 9 (mixed)
RNA 1: CACCCGUGCAAAAAUGCAGGGGUCUAAAACUGAGCGGAUAACCUCUCUAUGG
RNA 2: GGGAAUGGAUCCACAUCUACGAAUUCGUACCAUAGAGAGCGUUAGUCCGCUCACCGAGAUCGGAAGAGCACACGU
B16: target 1 insC 3' of 11,insG 3' of 10 (mixed)
RNA 1: CACCCGUGCAAAAAUGCAGGGGUCUAAAACUGAGCGGAUAACCUCUCUAUGG
RNA 2: GGGAAUGGAUCCACAUCUACGAAUUCGUACCAUAGAGAGGUCUGAUCCGCUCACCGAGAUCGGAAGAGCACACGU
B17: target 1 insU 3' of 15,insC 3' of 14 (mixed)
RNA 1: CACCCGUGCAAAAAUGCAGGGGUCUAAAACUGAGCGGAUAACCUCUCUAUGG
RNA 2: GGGAAUGGAUCCACAUCUACGAAUUCGUACCAUAGAGUACGGUUAUCCGCUCACCGAGAUCGGAAGAGCACACGU
B18: target 1 insU 3' of 13,insA 3' of 7 (mixed)
RNA 1: CACCCGUGCAAAAAUGCAGGGGUCUAAAACUGAGCGGAUAACCUCUCUAUGG
RNA 2: GGGAAUGGAUCCACAUCUACGAAUUCGUACCAUAGAGAGUGUUAUCACGCUCACCGAGAUCGGAAGAGCACACGU
B19: target 1 insA 3' of 3,insC 3' of 3 (mixed)
RNA 1: CACCCGUGCAAAAAUGCAGGGGUCUAAAACUGAGCGGAUAACCUCUCUAUGG
RNA 2: GGGAAUGGAUCCACAUCUACGAAUUCGUACCAUAGAGAGGUUAUCCGCUACCACCGAGAUCGGAAGAGCACACGU
B20: target 1 C6U,C22U (mixed)
RNA 1: CACCCGUGCAAAAAUGCAGGGGUCUAAAACUGAGCGGAUAACCUCUCUAUGG
RNA 2: GGGAAUGGAUCCACAUCUACGAAUUCGUAUCAUAGAGAGGUUAUCUGCUCACCGAGAUCGGAAGAGCACACGU
B21: target 1 G5U,A9U (mixed)
RNA 1: CACCCGUGCAAAAAUGCAGGGGUCUAAAACUGAGCGGAUAACCUCUCUAUGG
RNA 2: GGGAAUGGAUCCACAUCUACGAAUUCGUACCAUAGAGAGGUUUUCCUCUCACCGAGAUCGGAAGAGCACACGU
B22: target 1 insA 3' of 17,insG 3' of 10 (mixed)
RNA 1: CACCCGUGCAAAAAUGCAGGGGUCUAAAACUGAGCGGAUAACCUCUCUAUGG
RNA 2: GGGAAUGGAUCCACAUCUACGAAUUCGUACCAUAGAAGAGGUUGAUCCGCUCACCGAGAUCGGAAGAGCACACGU
B23: target 1 U3G,U10A (mixed)
RNA 1: CACCCGUGCAAAAAUGCAGGGGUCUAAAACUGAGCGGAUAACCUCUCUAUGG
RNA 2: GGGAAUGGAUCCACAUCUACGAAUUCGUACCAUAGAGAGGUAAUCCGCGCACCGAGAUCGGAAGAGCACACGU
B24: target 1 insG 3' of 11 (mixed)
RNA 1: CACCCGUGCAAAAAUGCAGGGGUCUAAAACUGAGCGGAUAACCUCUCUAUGG
RNA 2: GGGAAUGGAUCCACAUCUACGAAUUCGUACCAUAGAGAGGUGUAUCCGCUCACCGAGAUCGGAAGAGCACACGU
B25: target 1 U3G,A16G (mixed)
RNA 1: CACCCGUGCAAAAAUGCAGGGGUCUAAAACUGAGCGGAUAACCUCUCUAUGG
RNA 2: GGGAAUGGAUCCACAUCUACGAAUUCGUACCAUAGGGAGGUUAUCCGCGCACCGAGAUCGGAAGAGCACACGU
B26: target 1 complement block 4-10 (mixed)
RNA 1: CACCCGUGCAAAAAUGCAGGGGUCUAAAACUGAGCGGAUAACCUCUCUAUGG
RNA 2: GGGAAUGGAUCCACAUCUACGAAUUCGUACCAUAGAGAGGUAUAGGCGUCACCGAGAUCGGAAGAGCACACGU
B27: target 1 insC 3' of 20,insG 3' of 2 (mixed)
RNA 1: CACCCGUGCAAAAAUGCAGGGGUCUAAAACUGAGCGGAUAACCUCUCUAUGG
RNA 2: GGGAAUGGAUCCACAUCUACGAAUUCGUACCACUAGAGAGGUUAUCCGCUCGACCGAGAUCGGAAGAGCACACGU

The data set concerns the target T1, EsCas13d, nuclease-dead (Eubacterium siraeum, UniProt B0MS50, R295A;H300A;R849A;H854A).
T1 sequence: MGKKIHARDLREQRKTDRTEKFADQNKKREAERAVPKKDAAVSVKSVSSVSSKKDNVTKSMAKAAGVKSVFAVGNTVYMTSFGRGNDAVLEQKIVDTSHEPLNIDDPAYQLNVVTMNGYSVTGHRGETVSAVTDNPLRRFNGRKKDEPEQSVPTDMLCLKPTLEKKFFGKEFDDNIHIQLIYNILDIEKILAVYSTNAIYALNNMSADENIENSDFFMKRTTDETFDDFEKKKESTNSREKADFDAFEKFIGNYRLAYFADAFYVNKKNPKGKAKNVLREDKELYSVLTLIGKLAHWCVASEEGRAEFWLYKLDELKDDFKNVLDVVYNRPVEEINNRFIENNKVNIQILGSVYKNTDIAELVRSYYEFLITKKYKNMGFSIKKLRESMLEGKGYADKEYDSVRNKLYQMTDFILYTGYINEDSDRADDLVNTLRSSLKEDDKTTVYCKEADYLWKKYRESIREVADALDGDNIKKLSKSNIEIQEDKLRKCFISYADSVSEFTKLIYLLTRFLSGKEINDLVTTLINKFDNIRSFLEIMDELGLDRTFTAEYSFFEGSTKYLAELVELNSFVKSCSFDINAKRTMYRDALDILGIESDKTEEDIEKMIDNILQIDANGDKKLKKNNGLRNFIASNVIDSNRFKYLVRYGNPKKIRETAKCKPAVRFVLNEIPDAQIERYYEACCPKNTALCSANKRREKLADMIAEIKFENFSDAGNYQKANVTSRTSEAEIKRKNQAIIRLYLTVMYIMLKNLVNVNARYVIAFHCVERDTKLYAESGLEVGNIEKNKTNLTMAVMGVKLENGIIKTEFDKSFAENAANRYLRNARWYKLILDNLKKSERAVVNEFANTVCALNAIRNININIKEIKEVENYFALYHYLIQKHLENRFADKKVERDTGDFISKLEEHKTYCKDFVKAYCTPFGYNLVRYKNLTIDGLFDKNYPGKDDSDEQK
Briefly: crRNA (strand 1, pre-loaded); Mg2+; 40 mM Tris-HCl pH 7.5, 150 mM NaCl, 6 mM MgCl2, 1 mM DTT, 0.1% Tween-20, 0.2 mg/ml BSA; 25 C; 10 min per concentration, then washed. To be noted: tags: His6-TwinStrep-SUMO cleaved; N-terminal SNAP kept (SNAP-Surface 488); label: 3' end held by stalled T7 RNA polymerase.
B1 yielded an equilibrium dissociation constant (Kd) of 26 ± 5 nM.
Next, B2: 42 ± 14 nM; B3: 28.4 ± 3 nM; B4: 20.5 ± 1.3 nM.
The result for B5 reads 29 ± 5 nM; that for B6, 28.6 ± 1.8 nM; that for B7, 13.6 ± 0.5 nM.
The result for B8 reads 47 ± 6 nM.
The molecule B9 returned an equilibrium dissociation constant (Kd) of 13.9 ± 0.7 nM.
B10: the affinity, expressed as Kd, was 10.7 ± 0.6 nM.
The result for B11 reads 20.3 ± 0.9 nM; that for B12, 67 ± 23 nM; that for B13, 57 ± 13 nM.
B14: the Kd turned out to be 7 ± 0.5 nM.
Next, B15: 13 ± 0.9 nM.
In turn, B16 returned a Kd of 23.4 ± 2.5 nM.
Next, B17: 43 ± 6 nM; B18: 13.6 ± 0.6 nM.
On to B19, for which the Kd was determined as 62 ± 19 nM.
The result for B20 reads 14.8 ± 1.9 nM; that for B21, 97 ± 20 nM.
Turning to B22, the Kd turned out to be 43 ± 9 nM.
Molecule B23 displayed a dissociation constant Kd of 17.2 ± 1.3 nM.
The result for B24 reads 33.3 ± 3.1 nM; that for B25, 27.1 ± 1.5 nM.
The result for B26 reads 13.4 ± 0.4 nM; that for B27, 11.6 ± 0.5 nM.

(Values after article PMC10786891, “Massively parallel profiling of RNA-targeting CRISPR-Cas13d”.)
